From doi:10.1101/2022.01.06.475303 come the findings set out here.

The target of experiment [1] is SARS-CoV-2 receptor binding domain (RBD), Wuhan-1 (SARS-CoV-2 Wuhan-Hu-1) (UniProt P0DTC2). The experiment is described as follows: SPR. On the technique in general: In SPR one partner is held on a chip, and binding of the other changes the refractive index at the surface.
Experiment [2] concerns the target SARS-CoV-2 S protein (recombinant, His-tagged) (SARS-CoV-2 Wuhan-Hu-1 (MN908947)) (UniProt P0DTC2).

Usually Kd stands for a measure of binding affinity in units of concentration. Lower therefore signals tighter binding. CC6.30 IgG (antibody): in experiment [1], the Kd was 1.7 nM.

As for CC6.33 Fab, the fold higher binding affinity than for RBD in experiment [2] was determined as 10 fold.

Consider CC6.33 IgG (antibody), for which, in experiment [1], the Kd came out at 257 nM.

Take CC12.1 IgG (antibody): the Kd in experiment [1] came out at 6 nM.
